Data published in patent US20260151494A1 (ARO BIOTHERAPEUTICS, published 2026).
Where a chain is given by its changes, count along the chain named.

B1: CD71-binding FN3 domain of SEQ ID NO: 516 conjugated to KRAS2 siRNA (designed binder)
chain: MLPAPKNLVVSRVTEDSARLSWTAPDAAFDSFFIGYLEPQPPGEAISLWVPGSERSYDLTGLKPGTEYNVTIQGVKGGFPSSPLVAYFTT
modifications: conjugated to KRAS2 tool siRNA; site and linker not stated
B2: CD71-binding FN3 domain of SEQ ID NO: 508 conjugated to KRAS2 siRNA (designed binder)
chain: B1 chain with S47T, W49S, S82E, V85I, Y87I
modifications: conjugated to KRAS2 tool siRNA; site and linker not stated
B3: CD71-binding FN3 domain of SEQ ID NO: 373 conjugated to KRAS2 siRNA (designed binder)
chain: B1 chain with W49F, S82D, Y87S
modifications: conjugated to KRAS2 tool siRNA; site and linker not stated
B4: CD71-binding FN3 domain of SEQ ID NO: 496 conjugated to KRAS2 siRNA (designed binder)
chain: B1 chain with S47I, S82V, V85I, Y87Q
modifications: conjugated to KRAS2 tool siRNA; site and linker not stated
B5: CD71-binding FN3 domain of SEQ ID NO: 476 conjugated to KRAS2 siRNA (designed binder)
chain: B1 chain with S47H, W49Q, S82I, V85I, Y87V
modifications: conjugated to KRAS2 tool siRNA; site and linker not stated
B6: CD71-binding FN3 domain of SEQ ID NO: 478 conjugated to KRAS2 siRNA (designed binder)
chain: B1 chain with S47H, W49Y, S82V, V85I, Y87K
modifications: conjugated to KRAS2 tool siRNA; site and linker not stated
B7: CD71-binding FN3 domain of SEQ ID NO: 529 conjugated to KRAS2 siRNA (designed binder)
chain: B1 chain with S47D, W49Y, S82L, V85Q, Y87H
modifications: conjugated to KRAS2 tool siRNA; site and linker not stated
B8: CD71-binding FN3 domain of SEQ ID NO: 472 conjugated to KRAS2 siRNA (designed binder)
chain: B1 chain with S47E, W49Y, S82L, Y87T
modifications: conjugated to KRAS2 tool siRNA; site and linker not stated
B9: CD71-binding FN3 domain of SEQ ID NO: 400 conjugated to KRAS2 siRNA (designed binder)
chain: B1 chain with S47H, W49F, S82G, V85H, Y87T
modifications: conjugated to KRAS2 tool siRNA; site and linker not stated
B10: CD71-binding FN3 domain of SEQ ID NO: 447 conjugated to KRAS2 siRNA (designed binder)
chain: B1 chain with S47Y, W49Y, S82Y, V85T, Y87Q
modifications: conjugated to KRAS2 tool siRNA; site and linker not stated
B11: CD71-binding FN3 domain of SEQ ID NO: 546 (designed binder)
chain: MLPAPKNLVVSRVTEDSARLSWTAPDAAFDSFEIAYIEVNIQGEAIVLTVPGSERSYDLTGLKPGTEYYVHIGGVKGGPSSSPLSAIFTT
B12: CD71-binding FN3 domain of SEQ ID NO: 447 (designed binder)
chain: B1 chain with S47Y, W49Y, S82Y, V85T, Y87Q
notes: Tencon-based FN3 domain
B13: CD71-binding FN3 domain of SEQ ID NO: 476 (designed binder)
chain: B1 chain with S47H, W49Q, S82I, V85I, Y87V
notes: Tencon-based FN3 domain
B14: CD71-binding FN3 domain of SEQ ID NO: 483 (designed binder)
chain: B1 chain with S47T, W49V, S82D, Y87S
notes: Tencon-based FN3 domain
B15: CD71-binding FN3 domain of SEQ ID NO: 473 (designed binder)
chain: B1 chain with S47D, S82L, V85S, Y87S
notes: Tencon-based FN3 domain
B16: CD71-binding FN3 domain of SEQ ID NO: 516 (designed binder)
chain: B1 chain
notes: Tencon-based FN3 domain
B17: CD71-binding FN3 domain of SEQ ID NO: 465 (designed binder)
chain: B1 chain with S47D, W49Y, S82E, V85W, Y87D
notes: Tencon-based FN3 domain
B18: CD71-binding FN3 domain of SEQ ID NO: 496 (designed binder)
chain: B1 chain with S47I, S82V, V85I, Y87Q
notes: Tencon-based FN3 domain
B19: CD71-binding FN3 domain of SEQ ID NO: 529 (designed binder)
chain: B1 chain with S47D, W49Y, S82L, V85Q, Y87H
notes: Tencon-based FN3 domain
B20: CD71-binding FN3 domain of SEQ ID NO: 508 (designed binder)
chain: B1 chain with S47T, W49S, S82E, V85I, Y87I
notes: Tencon-based FN3 domain
B21: CD71-binding FN3 domain of SEQ ID NO: 478 (designed binder)
chain: B1 chain with S47H, W49Y, S82V, V85I, Y87K
notes: Tencon-based FN3 domain
B22: CD71-binding FN3 domain of SEQ ID NO: 336 (designed binder)
chain: MSLPAPKNLVVSRVTEDSARLSWTAPDAAFDSFNIMYHEHYDNGEAIVLTVPGSERSYDLTGLKPGTEYSVVINGVKGGPHSAPLSAIFTT
notes: not shown: C-terminal poly-histidine tag added to each FN3 domain
B23: CD71-binding FN3 domain of SEQ ID NO: 334 (designed binder)
chain: MSLPAPKNLVVSRVTEDSARLSWTAPDAAFDSFEIAYQELSLWGEAIVLTVPGSERSYDLTGLKPGTEYWVQIGGVKGGIWSSPLVASFTT
notes: as for B22
B24: CD71-binding FN3 domain of SEQ ID NO: 340 (designed binder)
chain: MSLPAPKNLVVSRVTEDSSRLSWTAPDAAFDSFEIGYFENLYLGEAIVLTVPGSERSYDLTGLKPGTEYWVQIGGVKGGNWSAPLSAIFTT
notes: as for B22
B25: CD71-binding FN3 domain of SEQ ID NO: 338 (designed binder)
chain: B24 chain with S19A, W70C, Q72Y, G74C, N80R, W81D, A83M
notes: as for B22
B26: CD71-binding FN3 domain of SEQ ID NO: 339 (designed binder)
chain: B24 chain with S19A, F38W, N40M, L41S, L43Y, W70G, Q72S, N80R, A83L
notes: as for B22
B27: CD71-binding FN3 domain of SEQ ID NO: 345 (designed binder)
chain: B24 chain with S19A, R20H, L41D, L43F, W70V, Q72F, N80K
notes: as for B22
B28: CD71-binding FN3 domain of SEQ ID NO: 344 (designed binder)
chain: B24 chain with V10F, S19A, F38W, L41A, L43K
notes: as for B22
B29: CD71-binding FN3 domain of SEQ ID NO: 335 (designed binder)
chain: MSLPAPKNLVVSRVTEDSARLSWTAPDAAFDSFFIGYLEPQPPGEAIDLYVPGSERSYDLTGLKPGTEYNVTIQGVKGGFPSLPLVATFTT
notes: as for B22
B30: CD71-binding FN3 domain of SEQ ID NO: 342 (designed binder)
chain: B29 chain with D48V, Y50T, L83E, V86I, T88N
notes: as for B22
B31: CD71-binding FN3 domain of SEQ ID NO: 341 (designed binder)
chain: B29 chain with D48E, T88I
notes: as for B22
B32: CD71-binding FN3 domain of SEQ ID NO: 343 (designed binder)
chain: B29 chain with D48A, Y50W, L83E
notes: as for B22
B33: CD71-binding FN3 domain of SEQ ID NO: 337 (designed binder)
chain: B29 chain with D48H, L83I, V86I, T88S
notes: as for B22

Each binder was assayed against T1, human CD71 on cells (SKBR3; SW620-rLuc-KRAS) (human, UniProt P02786 1-760) (assay: cell-based or functional assay).
T1 sequence (P02786 whole entry): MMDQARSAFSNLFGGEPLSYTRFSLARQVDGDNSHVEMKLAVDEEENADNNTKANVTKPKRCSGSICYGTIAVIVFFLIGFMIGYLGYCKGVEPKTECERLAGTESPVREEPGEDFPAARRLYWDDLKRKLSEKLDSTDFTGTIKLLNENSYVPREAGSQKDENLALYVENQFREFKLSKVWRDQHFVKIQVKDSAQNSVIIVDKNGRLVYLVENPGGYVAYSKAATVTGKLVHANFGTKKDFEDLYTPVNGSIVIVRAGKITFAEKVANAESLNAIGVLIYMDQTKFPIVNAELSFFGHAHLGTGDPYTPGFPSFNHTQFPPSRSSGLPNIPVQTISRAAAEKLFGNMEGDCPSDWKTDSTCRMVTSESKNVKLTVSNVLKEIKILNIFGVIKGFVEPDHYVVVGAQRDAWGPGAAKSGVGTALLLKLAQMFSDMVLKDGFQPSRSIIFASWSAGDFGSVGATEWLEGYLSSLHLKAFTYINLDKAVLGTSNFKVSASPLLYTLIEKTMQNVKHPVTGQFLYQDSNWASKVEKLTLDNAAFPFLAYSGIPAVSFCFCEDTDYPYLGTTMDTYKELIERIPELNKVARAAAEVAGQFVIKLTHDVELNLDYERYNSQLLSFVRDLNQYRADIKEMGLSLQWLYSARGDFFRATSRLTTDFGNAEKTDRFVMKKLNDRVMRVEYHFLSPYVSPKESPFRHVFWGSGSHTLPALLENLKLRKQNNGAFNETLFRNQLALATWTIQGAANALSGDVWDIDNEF

LSA EC50 (luciferase reporter assay, SW620-rLuc-KRAS cells, 72 h) [nM]	Binder
0.6	B1
0.6	B2
0.15	B3
0.22	B4
0.31	B5
0.21	B6
0.52	B7
0.15	B8
0.24	B9
0.53	B10

The binders below were run against T2, apical domain of human CD71 (human, UniProt P02786 189-383, limits assumed) (assay: primary ELISA screen, Screen 4; signal on apical domain over signal on HSA).
T2 construct: domain: apical domain; Screen 4 panned against human apical domains; also called human apical domain
T2 sequence (P02786 189-383 limits assumed): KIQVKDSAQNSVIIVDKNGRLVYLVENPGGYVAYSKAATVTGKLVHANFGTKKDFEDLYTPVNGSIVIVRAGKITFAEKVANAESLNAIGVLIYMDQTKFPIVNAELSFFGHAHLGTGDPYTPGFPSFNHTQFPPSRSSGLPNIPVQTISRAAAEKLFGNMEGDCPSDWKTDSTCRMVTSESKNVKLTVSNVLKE

Apical domain:HSA [ratio]	Binder
466	B11

The binders below were run against T3, human CD71 extracellular domain (human, UniProt P02786 89-760) (assay: primary ELISA screen, Screen 4; signal on hCD71 over signal on HSA).
T3 construct: also called hCD71; CD71-ECD

hCD71:HSA [ratio]	Binder
374	B11

Molecular target: T1, human CD71 on cells (SKBR3; …)
Experiment: cell-based or functional assay
Remark: another data set of the same source

CTG EC50 (CellTiter-Glo luminescent assay, SKBR3 cells, 72 h) [nM]	Binder
71.5	B12
2.7	B13
9.8	B14
12.6	B15
8.4	B16
1.2	B17
3	B18
7	B19
1.5	B20
0.6	B21

Each binder was assayed against T4, apical domain of CD71 (Screen 3: 'cynomolgus apical domain of human CD71') (cynomolgus (as 'cynomolgus apical …)) (assay: primary ELISA screen, apical domain of CD71).
T4 construct: domain: apical domain; Species is told ambiguously

RLU [RLU]	Binder
4.31e+06	B22
5.45e+06	B23
5.1e+06	B24
5.02e+06	B25
4.86e+06	B26
4.59e+06	B27
3.4e+06	B28
5.9e+06	B29
5.41e+06	B30
5.31e+06	B31
5.42e+06	B32
6.62e+06	B33

These binders were tested against T5, human CD71 extracellular domain (human, UniProt P02786 89-760) (assay: primary ELISA screen, human CD71-ECD).
T5 construct: also called hCD71; human CD71-ECD

RLU [RLU]	Binder
1.15e+06	B22
2.7e+06	B23
3e+06	B24
2.29e+06	B25
2.14e+06	B26
2.55e+06	B27
1.33e+06	B28
5.34e+06	B29
4.44e+06	B30
5.35e+06	B31
5.25e+06	B32
5.28e+06	B33

What follows are binders tested against T5, human CD71 extracellular domain (assay: primary ELISA screen, RLU on human CD71-ECD over RLU on HSA).

hCD71:HSA [ratio]	Binder
68	B22
188	B23
106	B24
57	B25
303	B26
108	B27
36	B28
93	B29
10	B30
92	B31
172	B32
307	B33

The binders below were run against T4, apical domain of CD71 (Screen 3: …) (assay: primary ELISA screen, RLU on apical domain over RLU on HSA).

Apical domain:HSA [ratio]	Binder
256	B22
378	B23
180	B24
125	B25
690	B26
195	B27
92	B28
103	B29
13	B30
92	B31
178	B32
385	B33

Each binder was assayed against T6, human CD71 extracellular domain (CD71-ECD) (human, UniProt P02786 89-760) (assay: capture ELISA, 20 nM antigen on Neutravidin plate, FN3 titrated 250 to 0.3 nM).
T6 construct: It was captured on a Neutravidin plate; also called hCD71; transferrin receptor 1 ECD
T6 sequence (P02786 89-760): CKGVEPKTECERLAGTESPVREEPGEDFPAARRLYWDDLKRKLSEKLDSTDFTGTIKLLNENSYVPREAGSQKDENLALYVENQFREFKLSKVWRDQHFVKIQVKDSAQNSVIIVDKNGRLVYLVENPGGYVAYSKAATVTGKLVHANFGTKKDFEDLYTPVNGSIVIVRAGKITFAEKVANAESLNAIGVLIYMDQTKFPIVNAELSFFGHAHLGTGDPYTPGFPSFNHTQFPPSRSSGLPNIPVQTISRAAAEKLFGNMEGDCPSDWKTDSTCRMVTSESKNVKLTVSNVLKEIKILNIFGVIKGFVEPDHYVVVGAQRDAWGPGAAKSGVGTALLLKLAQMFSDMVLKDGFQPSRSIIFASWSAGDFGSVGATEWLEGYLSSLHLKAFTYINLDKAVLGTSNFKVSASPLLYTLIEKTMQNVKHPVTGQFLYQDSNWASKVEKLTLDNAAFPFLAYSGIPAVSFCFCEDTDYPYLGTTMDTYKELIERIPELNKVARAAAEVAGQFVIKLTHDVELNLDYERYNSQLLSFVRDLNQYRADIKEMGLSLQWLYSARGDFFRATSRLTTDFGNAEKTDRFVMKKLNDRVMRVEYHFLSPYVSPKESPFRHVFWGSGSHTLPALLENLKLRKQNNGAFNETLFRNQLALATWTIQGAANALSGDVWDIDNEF
Description: (§1) Select CD71-binding FN3 domains identified in Example 4 above were chosen to determine their binding to both human and cynomolgus monkey CD71 extracellular domain (CD71-ECD). Capture ELISA using CD71 binding to FN3 domains was performed, with the FN3 domains being titrated from 250 nM to 0.3 nM. 20 nM of antigen was incubated on a Neutravidin® plate for 1 hour at room temperature. The FN3 domains were incubated for 16 hours at room temperature.

EC50 [nM]	Binder
3.2	B12
2.1	B13
14.1	B14
4.3	B15
2.2	B16
2.5	B17
3.9	B18
2.3	B19
5.5	B20
0.4	B21

The binders below were run against T7, cynomolgus monkey CD71 extracellular domain (CD71-ECD) (cynomolgus monkey, UniProt H9EXL1 89-760 (rhesus entry)) in the same assay as above.
T7 construct: extracellular domain; It was captured on a Neutravidin plate; also called cynomolgus CD71-ECD
T7 sequence (chain, as listed by the source): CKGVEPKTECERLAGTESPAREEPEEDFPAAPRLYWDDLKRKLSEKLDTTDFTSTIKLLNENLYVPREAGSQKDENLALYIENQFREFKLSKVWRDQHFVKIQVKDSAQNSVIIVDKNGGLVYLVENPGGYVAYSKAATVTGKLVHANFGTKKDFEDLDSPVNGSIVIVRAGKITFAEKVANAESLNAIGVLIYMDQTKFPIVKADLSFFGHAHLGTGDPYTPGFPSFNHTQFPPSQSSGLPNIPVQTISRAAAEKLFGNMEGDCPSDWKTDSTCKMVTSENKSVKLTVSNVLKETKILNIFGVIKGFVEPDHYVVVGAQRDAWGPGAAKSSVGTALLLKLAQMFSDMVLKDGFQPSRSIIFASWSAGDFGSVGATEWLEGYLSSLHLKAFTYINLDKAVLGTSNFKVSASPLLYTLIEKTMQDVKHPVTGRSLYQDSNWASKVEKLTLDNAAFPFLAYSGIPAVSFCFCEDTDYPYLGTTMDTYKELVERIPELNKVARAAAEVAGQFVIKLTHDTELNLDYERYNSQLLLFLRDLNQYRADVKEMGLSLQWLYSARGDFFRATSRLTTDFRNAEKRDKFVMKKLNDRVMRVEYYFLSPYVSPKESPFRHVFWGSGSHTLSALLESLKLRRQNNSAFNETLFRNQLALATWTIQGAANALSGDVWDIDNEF
Description: as §1

EC50 [nM]	Binder
5	B12
17.7	B13
23	B14
34.9	B15
10.6	B16
24.9	B17
10.6	B18
2.7	B19
14.2	B20
0.6	B21

What follows are binders tested against T3, human CD71 extracellular domain (assay: primary ELISA screen, Screen 4, luminescence).

hCD71, RLU [RLU]	Binder
3.53e+06	B11

Each binder was assayed against T2, apical domain of human CD71 (assay: primary ELISA screen, Screen 4, luminescence).

Apical domain, RLU [RLU]	Binder
4.4e+06	B11
